The data set in a line: Pharmacokinetics in a healthy dog, oral sub-mucosa injection (SAAM II model). It counts as in vivo. The method, then:
Pharmacokinetics of HA-Lys-Pt were determined in a healthy dog by Xenometrics LLC (Stillwell, Kans.). […] After each injection, 2-mL serum samples were collected at 0, 0.25, 1, 2, 6, 24, 48, 96, and 168 hours. […] The samples were frozen at −80° C. until ICP-MS analysis. Prior to analysis, serum and urine samples were diluted 250 and 500-fold using 1% HNO3, respectively. The platinum calibration curve contained 4 replicates of 6 concentrations (0, 1, 10, 20, 40, and 50 ppb). The internal standard was bismuth at 50 ppb.
The pharmacokinetics of the HA-Lys-Pt was measured using the serum and urine samples. The data was modeled using SAAM II software with a four compartmental model.
As indicated by the model, q1, q2, q3, and q4 represent the central blood compartment, the body/tissue compartment, the injection site, and the urine compartment, respectively. The syringe represents the dose that was given to the injection site compartment. The two red circles indicate the two sampling sources, the serum from the q1 (s1), and the urine from the q4 (s2). Furthermore, five transfer rate constants and one loss rate constant were applied to the model to link the compartments and their individual differential equations for data analysis and simulation. The assignment of rate constants and pharmacokinetic interpretation has been discussed previously. The calculated PK parameters including AUC, clearance, volume of distribution at steady state (Vss), elimination half-lives (te), and transfer rate constants, are listed in Table 3.

As to “HA-cis-[Pt(NH3)2(N^α-Acetyl-L-Lysine)] [75HA-Lys-Pt]”, where the note is “1st dose […]”, the Clearance came out at 0.283 mL/min/kg, the time to peak (Tmax) stood at 6 h and the Vss is listed as 7.4 L/kg. Further, under “2nd dose 2.0 mg/kg”, the AUC turned out to be 218 µg·h/mL, the Clearance stood at 0.153 mL/min/kg, the peak concentration (Cmax) worked out at 3437 ng/mL and the Tmax amounted to 14.4 h. Further, the Vss (2nd dose 2.0 mg/kg) is 2.5 L/kg.

(Values after patent publication US20190015518A1, “DRUG DELIVERY COMPOSITIONS AND METHODS” (priority 2016, published 2019).)
